Results as given in paper PMC2289477.

Molecular target: profilin from bovine brain (profilin of the high-affinity profilactin complex) (bovine (endogenous in bovine brain)) (UniProt P02584)
Chain of UniProt P02584 (P02584 whole entry, one chain of several): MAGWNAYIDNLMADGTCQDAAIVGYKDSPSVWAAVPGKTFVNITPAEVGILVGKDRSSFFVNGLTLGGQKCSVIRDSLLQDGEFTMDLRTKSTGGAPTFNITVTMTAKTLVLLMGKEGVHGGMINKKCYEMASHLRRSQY

- stoichiometry N (actin/profilin molar ratio): 1
Substance: actin from bovine brain (actin of the high-affinity profilactin complex) (from UniProt P60712 1-375) (natural protein)
